Data: patent US20250262167A1, “COMPOUNDS, TARGETS AND PATHWAYS FOR MACROPHAGE MODULATION” (Massachusetts Institute of Technology, priority 2020, published 2025)

B1: IL10: classic M2 stimulus (protein, UniProt P22301 19-178, looked up)
Interleukin-10: SPGQGTQSENSCTHFPGNLPNMLRDLRDAFSRVKTFFQMKDQLDNLLLKESLLEDFKGYLGCQALSEMIQFYLEEVMPQAENQDPDIKAHVNSLGENLKTLRLRLRRCHRFLPCENKSKAVEQVKNAFNKLQEKGIYKAMSEFDIFINYIEAYMTMKIRN
B2: EGF: ligand of novel pathway (protein, UniProt P01133 23-1207, looked up)
Pro-epidermal growth factor: PQHWSCPEGTLAGNGNSTCVGPAPFLIFSHGNSIFRIDTEGTNYEQLVVDAGVSVIMDFHYNEKRIYWVDLERQLLQRVFLNGSRQERVCNIEKNVSGMAINWINEEVIWSNQQEGIITVTDMKGNNSHILLSALKYPANVAVDPVERFIFWSSEVAGSLYRADLDGVGVKALLETSEKITAVSLDVLDKRLFWIQYNREGSNSLICSCDYDGGSVHISKHPTQHNLFAMSLFGDRIFYSTWKMKTIWIANKHTGKDMVRINLHSSFVPLGELKVVHPLAQPKAEDDTWEPEQKLCKLRKGNCSSTVCGQDLQSHLCMCAEGYALSRDRKYCEDVNECAFWNHGCTLGCKNTPGSYYCTCPVGFVLLPDGKRCHQLVSCPRNVSECSHDCVLTSEGPLCFCPEGSVLERDGKTCSGCSSPDNGGCSQLCVPLSPVSWECDCFPGYDLQLDEKSCAASGPQPFLLFANSQDIRHMHFDGTDYGTLLSQQMGMVYALDHDPVENKIYFAHTALKWIERANMDGSQRERLIEEGVDVPEGLAVDWIGRRFYWTDRGKSLIGRSDLNGKRSKIITKENISQPRGIAVHPMAKRLFWTDTGINPRIESSSLQGLGRLVIASSDLIWPSGITIDFLTDKLYWCDAKQSVIEMANLDGSKRRRLTQNDVGHPFAVAVFEDYVWFSDWAMPSVMRVNKRTGKDRVRLQGSMLKPSSLVVVHPLAKPGADPCLYQNGGCEHICKKRLGTAWCSCREGFMKASDGKTCLALDGHQLLAGGEVDLKNQVTPLDILSKTRVSEDNITESQHMLVAEIMVSDQDDCAPVGCSMYARCISEGEDATCQCLKGFAGDGKLCSDIDECEMGVPVCPPASSKCINTEGGYVCRCSEGYQGDGIHCLDIDECQLGEHSCGENASCTNTEGGYTCMCAGRLSEPGLICPDSTPPPHLREDDHHYSVRNSDSECPLSHDGYCLHDGVCMYIEALDKYACNCVVGYIGERCQYRDLKWWELRHAGHGQQQKVIVVAVCVVVLVMLLLLSLWGAHYYRTQKLLSKNPKNPYEESSRDVRSRRPADTEDGMSSCPQPWFVVIKEHQDLKNGGQPVAGEDGQAADGSMQPTSWRQEPQLCGMGTEQGCWIPVSSDKGSCPQVMERSFHMPSYGTQTLEGGVEKPHSLLSANPLWQQRALDPPHQMELTQ
modifications: Pro-epidermal growth factor
notes: ligand of novel pathway
B3: IL-4: classic M2 stimulus (protein, UniProt P05112 25-153, looked up)
Interleukin-4: HKCDITLQEIIKTLNSLTEQKTLCTELTVTDIFAASKNTTEKETFCRAATVLRQFYSHHEKDTRCLGATAQQFHRHKQLIRFLKRLDRNLWGLAGLNSCPVKEANQSTLENFLERLKTIMREKYSKCSS

What was measured:
[1] = system: human monocyte-derived macrophages (hMDMs); experiment: High throughput phenotypic screen of macrophage activation (cell shape, Z-score); format: cell-based; conditions: known M1-/M2-activating stimuli;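 note: phalloidin and DAPI stained hMDMs imaged by high-content microscopy, cell eccentricity compared with DMSO control by T-test, round morphology scored negative, elongated positive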
Method: The Z-score was calculated by T-test to measure the difference of cell morphology between treatment and control. Stimuli had negative Z-scores when induced cells to round morphology and positive scores when induced cells to elongated morphology. […] Equally mixed human monocytes isolated from fresh blood of 4 healthy donors were cultured in vitro with 50 ng/mL M-CSF for 7 days. hMDMs were trypsinized and plated on 384-well plates (5000 cells/well in 50 μL). Cells were recovered in 10 ng/mL M-CSF for 16 hrs and then treated with compounds for 24 hrs. Cells were washed, fixed and stained with Phalloidin and DAPI. The plates were scanned with a high-content microscope with six-fields per well to quantify the cell number and cell morphology. […] The cell eccentricity was calculated to measure the cell morphology. The Z-score was calculated by T-test to measure the difference in cell morphologies between each compound and DMSO control.
Cells were treated with a library of over 4000 individual compounds or drugs at the final concentration of 20 μM using the CyBi-Well simultaneous pipettor (CyBio). […] After 24 hr incubation, supernatants were removed using the microplate washer (Bioteck) and cells were fixed by adding 50 μL 16% paraformaldehyde (Thermo Scientific) with the dispenser for 20 minutes. Cells were then washed with 50 μL 1×PBS twice and incubated for 20 minutes with NucBlue and AF746 Phalloidin (Invitrogen) to stain nucleus and cytoskeleton. Cells were then washed with 50 μL 1×PBS twice and maintained in PBS for the image acquirement. Plates were read in the Opera Phenix high content screening system (PerkinElmer) to photograph cells using 20× objective in 2 fluorescent channels (Blue and FarRed). A total of 6 different fields in each well and an average of 1,000 cells were imaged per well. CellProfiler was used to identify each cell by overlapping signals from its nucleus and cytoskeleton, and calculate the eccentricity as the parameter to measure the cell morphology. The Z-score was calculated by T-test to measure the difference of cell morphology between each treatment and control. For each row of the 384-well plate, total 4 wells with first and last two columns treated with the same concentration of DMSO were combined as the control for the other 20 treatment wells in that row. In the meantime, classic M1 and M2 stimuli were added to generate the gold-standard Z-score cutoffs with M1 or M2 activation. Classic M1 stimuli include LPS (100 ng/mL), IFNγ (50 ng/mL, Peprotech), TNFα (50 ng/mL, Peprotech), or IFNγ plus TNFα. Classic M2 stimuli include IL-10 (10 ng/mL, Peprotech), IL-4 (10 ng/mL, Peprotech), or IL-13 (5 ng/mL, Peprotech).

hMDMs [2] = experiment: RNA-seq transcriptional response of hMDMs (GSEA, GO enrichment); format: cell-based, human; conditions: hMDMs, 24 hrs, GSEA
Method: Duplicate hMDM samples were treated with 2 M2-activating and 6 M1-activating compounds as well as IL-4 and IFNγ for 24 hrs. Gene expression levels were measured by RNA-seq separately. GSEA preranked analysis was performed based on the whole genome gene list ranked on gene expression changes using a gene set of 49 transcriptional modules in response to 29 stimuli in hMDMs. bosut.: bosutinib; alster.: alsterpaullone; mocet.: mocetinostat; thios.: thiostrepton; niclo.: niclosamide; chlor.: chlorhexidine; fenb.: fenbendazole; fluvo.: fluvoxamine. […] Duplicate hMDM samples were stimulated with each ligand and analyzed by RNA-seq separately.
DEGs were identified by edgeR at P<0.05 with at least 2 fold-change.
RNAs were extracted with RNeasy MiniElute kit (Qiagen), converted into cDNA and sequenced using Next-Generation Sequencing (Illumina). […] Differential expression analysis was performed using the program edgeR at P<0.05 with a 2 fold-change. The gene expression level across different samples was normalized and quantified using the function of cpm. Differentially expressed genes were annotated using online functional enrichment analysis tool DAVID (http://david.ncifcrf.gov/). Gene set enrichment analysis were performed with GSEA with FDR q-value<0.05.
Fresh hMDMs were treated with compounds at the EC for 24 hours, followed by RNA-seq.

hMDMs [3] = experiment: Flow cytometry of M1 markers (CD80, CD86) and M2 markers (CD206, CD163) in hMDMs; format: cell-based, human; conditions: 24 hrs
Method: FIGS. 7A-7B show morphology and phenotypes of activated macrophages. […] The resulting macrophages were polarized to M1 by IFNγ or M2 by IL4. Then, M1 macrophages were treated with M2-type compound bosutinib ([…]) for 24 hrs, and M2 macrophages were treated with M1-type compound thiostrepton ([…]) for 24 hrs. F-actin was stained and images were acquired by fluorescent microscopy with 60× objective. Cell nuclei are stained with DAPI. Representative data were shown from two independent experiments. […] Shown are the representative staining profiles from three independent experiments. The numbers show mean fluorescent intensity (MFI)+/−standard error of the mean (SEM) for n=3 samples per group.
FIGS. 9A-9C show comparison of the differentially expressed genes induced by selected compounds (FIG. 9A), ligands for novel pathways (FIG. 9B), and controls (IL-4 and IFNγ). […] Shown are the changes of the relative mean fluorescence intensity (MFI) to controls. 0.2 refers to 20% MFI increase.
B6 mice were purchased from the Jackson Laboratory and maintained in the animal facility at the Massachusetts Institute of Technology (MIT). NSG mice were purchased from the Jackson Laboratory and maintained under specific pathogen-free conditions in the animal facilities at MIT. […] The data were analyzed by FlowJo. […]

Row | Molecule | cell shape induced [1] | gene expression of TPP modules (#30, #32) (hMDMs [2]) | gene expression of typical M1 modules (#7, #8) (hMDMs [2]) | expression of M1 markers CD80 and CD86 (hMDMs [3]) | expression of M2 markers CD206 and CD163 (hMDMs [3])
1 | B1 | elongated cell shape |  |  |  | 
2 | B2 |  | down-regulated | up-regulated |  | 
3 | B3 | elongated cell shape |  |  | suppressed | up-regulated
